Ends that are not written are not given here. * marks the point of attachment. GlcNAc2 = N-linked chitobiose, CC(=O)N[C@@H]1[C@@H](O)[C@H](O[C@@H]2O[C@H](CO)[C@@H](O)[C@H](O)[C@H]2NC(C)=O)[C@@H](CO)O[C@H]1*
T1: MUC16 18mer + GlcNAc2-Trimannose (also: N-linked Man3GlcNAc2, Asn site not given here)
T1 construct: also called 18-mer with Man3GlcNAc2
T1 peptide: CTRNGTQLQNFTLDRSSV

T2: MUC16 18mer (not fully specified)
T2 construct: also called non-glycosylated 18-mer MUC16 peptide
T2 peptide: CTRNGTQLQNFTLDRSSV

T3: (GlcNAc2)2-18-mer glycopeptide, unconjugated (human)
T3 construct: Used in ELISA without KLH; also called 18-mer(chitobiose)2[C-T22-V38]; 18mer-chitobiose peptide
T3 peptide: Ac-CTRN(GlcNAc2)GTQLQN(GlcNAc2)FTLDRSSV-NH2

T4: non-glycosylated 15-mer MUC16 peptide (human)
T4 construct: Same peptide as the GlcNAc2-15-mer without the glycan; also called unglycosylated 15-mer
T4 peptide: CGTQLQNFTLDRSSV

T5: MUC16 unrelated peptide 18mer+GlcNAc2 (also: GlcNAc2 (chitobiose), site not given here)
T5 construct: Negative control glycopeptide; also called unrelated chitobiose-linked peptide
T5 peptide: GAVPRSATINVSRIATGP

T6: MUC16 nonglycosylated peptide 2 (human)
T6 construct: Peptide used to elicit the 4H11 antibody; also called nonglycosylated MUC16 peptide 2
T6 peptide: CTLDRSSVLVDGYSPNRNE

T7: MUC16 unrelated peptide 18mer
T7 construct: Negative control peptide without glycan
T7 peptide: GAVPRSATINVSRIATGP

T8: MUC16^c114 on SKOV3 cells with MGAT5 knock-down (human, N-glycans without MGAT5-dependent tetra-antennary branching ; chain 1 pos 1, 24 and 30: N-glycosylated Asn, written N; the glycans lack MGAT5-dependent tetra-antennary branching (shRNA knock-down))
T8 construct: Same polypeptide as MUC16^c114, other glycoform (shRNA against MGAT5); also called SKOV3-shMGAT5-c114; MUC16^c114-shMGAT5; not shown: hrGFP of the phrGFP II-C vector, fused at the cytoplasmic carboxy-terminus
T8 chain: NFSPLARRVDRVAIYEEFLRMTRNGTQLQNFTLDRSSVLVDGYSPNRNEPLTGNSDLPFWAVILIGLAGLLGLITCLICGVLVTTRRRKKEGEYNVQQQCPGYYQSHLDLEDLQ

T9: MUC16 18mer + GlcNAc1 (also: N-linked single GlcNAc, Asn (N4, N10 or both) not given here)
T9 construct: also called 18-mer with a single GlcNAc
T9 peptide: CTRNGTQLQNFTLDRSSV

T10: biotinylated chitobiose-conjugated 18-mer glycopeptide (human, also: biotinylated, site not given here)
T10 construct: Cys plus T22-V38 of MUC16^c114; The range is derived from T22-V38 and the statement that c114 is 1777-1890; the N-terminal Cys is added; also called (GlcNAc2)2-18-mer, biotinylated; 18-mer(chitobiose)2[C-T22-V38]
T10 peptide: Ac-CTRN(GlcNAc2)GTQLQN(GlcNAc2)FTLDRSSV-NH2

T11: MUC16^c114-N2 (human, chain 1 pos 1 and pos 30: N-glycosylated Asn (cell-made glycans), written N)
T11 construct: MUC16^c114 with Asn24 (Asn1800) changed to Ala, on SKOV3 cells; also called N24 mut c114; SKOV3-N24 mutc114; not shown: hrGFP of the phrGFP II-C vector, fused at the cytoplasmic carboxy-terminus
T11 chain: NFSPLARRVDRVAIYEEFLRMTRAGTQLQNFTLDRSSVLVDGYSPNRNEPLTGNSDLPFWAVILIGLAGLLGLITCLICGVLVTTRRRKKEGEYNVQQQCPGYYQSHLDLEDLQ

T12: GlcNAc2-15-mer glycopeptide, unconjugated (human)
T12 construct: Cys plus G25-V38 of MUC16^c114; Used in ELISA without KLH; also called 15-mer(chitobiose)[C-G25-V38]; 15mer-chitobiose peptide
T12 peptide: Ac-CGTQLQN(GlcNAc2)FTLDRSSV-NH2


Tests used:
[1] = target: T1, MUC16 18mer + GlcNAc2-Trimannose; assay: sandwich ELISA on 'MUC16 18mer + GlcNAc2-Trimannose'; Blank 0.035
MUC16 18mer [2] = target: T2, MUC16 18mer; assay: sandwich ELISA on 'MUC16 18mer'; Blank 0.032
[3] = target: T3, (GlcNAc2)2-18-mer glycopeptide, …; assay: sandwich ELISA on 'MUC16 18mer + GlcNAc2'; Blank 0.029
[4] = target: T4, non-glycosylated 15-mer MUC16 peptide; assay: sandwich ELISA on 'MUC16 15mer'; Blank 0.021
MUC16 18mer [5] = target: T2, MUC16 18mer; assay: ELISA 12/24/13 (sups from time of freezing), dilution 400, column 18
[6] = target: T3, (GlcNAc2)2-18-mer glycopeptide, …; assay: ELISA 12/24/13 (sups from time of freezing), dilution 400, column 18S
[7] = target: T5, MUC16 unrelated peptide 18mer+GlcNAc2; assay: sandwich ELISA
[8] = target: T6, MUC16 nonglycosylated peptide 2; assay: sandwich ELISA
[9] = target: T7, MUC16 unrelated peptide 18mer; assay: sandwich ELISA
[10] = target: T5, MUC16 unrelated peptide 18mer+GlcNAc2; assay: sandwich ELISA on 'MUC16 unrelated 18mer + GlcNAc2'; Blank 0.014
[11] = target: T3, (GlcNAc2)2-18-mer glycopeptide, …; assay: ELISA during fusion screen, dilution 400, column 18S
[12] = target: T8, MUC16^c114 on SKOV3 cells with MGAT5 …; assay: FACS, SKOV3-shMGAT5-c114
MUC16 18mer + GlcNAc1 = target: T9, MUC16 18mer + GlcNAc1; assay: sandwich ELISA on 'MUC16 18mer + GlcNAc1'; Blank 0.042
[13] = target: T10, biotinylated chitobiose-conjugated …; assay: binding affinity table of Example 3; target not named there, taken as in Table 9 (Octet BLI, biotinylated chitobiose 18-mer)
Method in brief: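 Binding was measured by biolayer interferometry on a ForteBio Octet QK, with 5 μg/mL biotinylated chitobiose-conjugated 18-mer glycopeptide loaded onto streptavidin biosensors. Excess antigen was washed off, and mouse antibodies were run at 10 μg/mL for association and dissociation steps. Kd, kon and koff came from a 1:1 binding site model with partial fit.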

MUC16^c114-N2 = target: T11, MUC16^c114-N2; assay: FACS, SKOV3-N24 mutc114
MUC16 18mer [14] = target: T2, MUC16 18mer; assay: ELISA during fusion screen, dilution 400, column 18
[15] = target: T7, MUC16 unrelated peptide 18mer; assay: sandwich ELISA on 'MUC16 unrelated peptide 18mer'; Blank 0.013
[16] = target: T12, GlcNAc2-15-mer glycopeptide, …; assay: sandwich ELISA on 'MUC16 15mer + GlcNAc2'; Blank 0.019
[17] = target: T4, non-glycosylated 15-mer MUC16 peptide; assay: ELISA 12/24/13 (sups from time of freezing), dilution 400, column 15

| ELISA signal [1] | ELISA signal (MUC16 18mer [2]) | ELISA signal [3] | ELISA signal [4] | ELISA signal (MUC16 18mer [5]) | ELISA signal [6] | binding result [7] | binding result [8] | binding result [9] | ELISA signal [10] | ELISA signal [11] | geometric mean phycoerythrin (PE) fluorescence [12] | ELISA signal (MUC16 18mer + GlcNAc1) | Kd [13] [nM] | koff [13] [s⁻¹] | geometric mean phycoerythrin (PE) fluorescence (MUC16^c114-N2) | ELISA signal (MUC16 18mer [14]) | ELISA signal [15] | ELISA signal [16] | ELISA signal [17] | Binder | also measured |
| --- | --- | --- | --- | --- | --- | --- | --- | --- | --- | --- | --- | --- | --- | --- | --- | --- | --- | --- | --- | --- | --- |
| 0.89 | 1.01 | 1.06 | 1.06 | 0.45 | 0.55 | no binding | no binding | no binding | 0.02 | 0.64 | 855 | 0.95 | 11.1 | 0.000678 | 1830 | 0.39 | 0.02 | 1.44 | 0.44 | 18C6.D12 (antibody, V domains shown, Mouse monoclonal from a hybridoma; also called MUC16 Glycosylation Antibody 18C6) VH: QVTLKESGPGILQPSQTLSLTCSFSGFSLSTVGMGVGWSRQPSGKGLEWLAHIWWDDEDKYYNPALKSRLTISKDTSKNQVFLKIANVDTADTATYYCTRIGTAQATDALDYWGQGTSVTVSS VL: DIVMTQAAPSVPVTPGESVSISCRSSKSLLHSNGNTYLYWFLQRPGQSPQRLIYYMSNLASGVPDRFSGRGSGTDFTLRISRVEAEDVGVYYCMQSLEYPLTFGGGTKLEIK | – |
| 0.99 | 0.98 | 1.1 | 1.17 | 0.2 | 0.36 | no binding | no binding | no binding | 0.03 | 0.47 | 525 | 0.96 | 63.7 | 0.00242 | 486 | 0.38 | 0.03 | 1.51 | 0.3 | 19C11.H6 (antibody, V domains shown, Mouse monoclonal from a hybridoma; Used as 89Zr-DFO-labelled antibody in the internalization assay; also called MUC16 Glycosylation Antibody 19C11) VH: QVNLKESGPGKLQPSQTLSLTCSFSGFSLSTLGMGVGWIRQSSGKGLEWLAHIWWDDDKYYNPALKSRLTISRATSKNQVFLKIVNVGTADTATYYCARIGTAQATDALDYWGQGTSVTVSS VL: DIVMTQAAPSIPVTPGESVSISCRSSKSLLHSNGNTYLYWFLQRPGQSPQRLIYYMSNLASGVPDRFSGRGSGTDFTLKISRVEAGDVGVYYCMQGLEHPLTFGGGTKLEIK | kon [13]: 38000 M⁻¹ s⁻¹ |
| 1.05 | 1.09 | 1.06 | 1.21 | 0.33 | 0.51 | no binding | no binding | no binding | 0.03 | 0.92 | 289 | 1.03 | 13.8 | 0.00104 | 471 | 0.53 | 0.04 | 1.32 | 0.44 | 7B12.B3 (antibody, V domains shown, Mouse monoclonal from a hybridoma; also called MUC16 Glycosylation Antibody 7B12) VH: QVTLKESGPGILQPSQTLSLTCSFSGFSLSTVGMGVGWSRQPSGKGLEWLAHIWWDDEDKYYNPALKSRLTISKDTSKNQVFLKIANVDTADSATYYCTRIGTAQATDALDYWGQGTSVTVSS VL: DIVMTQAAPSVSVTPGESVSISCRSSKSLRKSNGNTYLYWFLQRPGQSPQRLIYYMSNLASGVPDRFSGRGSGTDFTLRISRVEAEDVGVYYCMQSLEYPLTFGGGTKLKIK | – |

Reference: patent publication US20180112008A1 (Memorial Sloan Kettering, published 2018)
